Data set [1] has as its target T1, GST-hnRNPA1 (UniProt P09651 1-372). The experiment in a line: EMSA; 50 mM KCl; bound at 1:1 ratio; EMSA: 50 mM Tris-HCl pH 7.4, 50 mM KCl, 1 mM EDTA, 1 mM Na3VO4, 5 mM NaF, 1 mM DTT, 8% glycerol, 25 C, 30 nM RNA; ITC: 10 mM KPi, 50 mM KCl, 25 C, 8 uM UP1. The conditions noted are these: protein: recombinant; tags: GST (N-terminal, pGEX4T1); label: Cy5.5 5'; rG4. (A gel shift assay detects complexes by their altered migration in electrophoresis.)

The target of data set [2] is T1, GST-hnRNPA1. Kind of data set: EMSA; 10-fold molar excess of protein; EMSA: 50 mM Tris-HCl pH 7.4, 50 mM KCl, 1 mM EDTA, 1 mM Na3VO4, 5 mM NaF, 1 mM DTT, 8% glycerol, 25 C, 30 nM RNA; ITC: 10 mM KPi, 50 mM KCl, 25 C, 8 uM UP1. The conditions noted are these: protein: recombinant; tags: GST (N-terminal, pGEX4T1); unable to form rG4.
Another data set addresses UP1 (UniProt P09651 1-196). Kind of data set: ITC; 50 mM KCl; one-site fit, Kd not in material; EMSA: 50 mM Tris-HCl pH 7.4, 50 mM KCl, 1 mM EDTA, 1 mM Na3VO4, 5 mM NaF, 1 mM DTT, 8% glycerol, 25 C, 30 nM RNA; ITC: 10 mM KPi, 50 mM KCl, 25 C, 8 uM UP1. The conditions noted are these: protein: recombinant; tags: none (GST removed by PreScission); rG4, two stacked G-tetrads. (ITC needs no label: the signal is the heat of the interaction.)

T1 sequence (P09651 whole entry): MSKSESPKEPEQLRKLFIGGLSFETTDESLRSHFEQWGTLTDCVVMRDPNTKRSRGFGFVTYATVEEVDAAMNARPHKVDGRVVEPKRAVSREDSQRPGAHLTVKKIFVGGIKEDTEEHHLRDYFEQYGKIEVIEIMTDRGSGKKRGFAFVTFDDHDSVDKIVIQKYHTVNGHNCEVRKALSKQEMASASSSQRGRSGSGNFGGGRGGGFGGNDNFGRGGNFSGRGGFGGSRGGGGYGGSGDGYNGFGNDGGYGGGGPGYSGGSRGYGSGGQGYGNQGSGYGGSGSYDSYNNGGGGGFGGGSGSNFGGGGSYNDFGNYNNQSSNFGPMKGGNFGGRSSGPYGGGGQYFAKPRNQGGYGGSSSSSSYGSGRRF
UP1, sequence (P09651 1-196): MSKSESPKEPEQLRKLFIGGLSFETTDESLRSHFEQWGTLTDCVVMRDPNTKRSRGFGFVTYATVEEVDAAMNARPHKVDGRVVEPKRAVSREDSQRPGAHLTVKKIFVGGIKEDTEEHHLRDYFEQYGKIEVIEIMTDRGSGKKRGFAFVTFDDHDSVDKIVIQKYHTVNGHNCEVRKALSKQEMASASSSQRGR

B1: 41-mer 5'UTR (utr-c + utr-z) (structured_RNA)
RNA: GCAGCGGCGGCGGCAGUGGCGGCGGCGAAGGUGGCGGCGGC
In the case of B1, the binding result in the data set with GST-hnRNPA1 [1] was “binds”.

B2: 41-mer 5'UTRmut (ssRNA)
RNA: GCAGCGCCAGCCGCAGUCGCGUCCGCGAACGUAGCCGCCGC
On to B2, for which the binding result with GST-hnRNPA1 [2] is “no binding”.

B3: utr-c (structured_RNA)
RNA: GGUGGCGGCGG
For the molecule B3, the binding result in the data set with UP1 was “binds”.

For the origin of these results see publication PMC12449053, “Cortolezzis Ylenia Formal analysis Investigation Methodology Department of Medicine, Laboratory of Biochemistry, University of Udine, 33100 Udine, Italy”.
